Blank lines part the entries; values can stand above or below the substance they belong to.
Key:
Rab5 = Rab5 (UniProt P51148)
Rab1/Ypt1 = Rab1/Ypt1 (UniProt P01123)
Chain of UniProt P01123 (P01123 whole entry): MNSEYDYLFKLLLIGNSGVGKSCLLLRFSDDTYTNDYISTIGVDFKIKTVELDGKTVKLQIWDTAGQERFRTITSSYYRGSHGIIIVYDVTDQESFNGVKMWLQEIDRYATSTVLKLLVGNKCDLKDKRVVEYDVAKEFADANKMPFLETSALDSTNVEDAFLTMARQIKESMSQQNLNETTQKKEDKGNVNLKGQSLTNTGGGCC

Chain of UniProt P51148 (P51148 whole entry): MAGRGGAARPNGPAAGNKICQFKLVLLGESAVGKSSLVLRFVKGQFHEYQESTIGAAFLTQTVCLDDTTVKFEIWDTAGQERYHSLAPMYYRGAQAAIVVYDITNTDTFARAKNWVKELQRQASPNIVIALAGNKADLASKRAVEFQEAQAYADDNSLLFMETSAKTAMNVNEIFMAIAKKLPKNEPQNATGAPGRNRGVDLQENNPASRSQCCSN

catalytic efficiency (kcat/Km) of Rabex-mediated nucleotide exchange (release of Mant-GDP from Rab5) (Rab5): 25000 M⁻¹ s⁻¹
Substance: Rabex5 (enzyme)

GEF activity towards Rab1 (release of Mant-GDP), reduction against wild type TRAPP (Rab1/Ypt1): 4 fold
Substance: TRAPP Bet3 E192A/D193A mutant (from UniProt P36149 1-193) (complex)

catalytic efficiency (kcat/Km) of TRAPP-stimulated GDP-release from Rab1/Ypt1 (release of Mant-GDP) (Rab1/Ypt1): 130000 M⁻¹ s⁻¹
Substance: TRAPPI-complex (from UniProt P36149 1-193)

— article PMC3919270
